# Biological target: HP1α (mouse) (UniProt Q61686)
# Experiment: BLI
# Conditions: K+, BLI: 100 mM KCl, 50 mM NaCl, 20 mM Na phosphate, pH 8 (G4) or pH 7 (i-motif, dsDNA), room temp, 500 nM oligo or titration, EMSA: 50 mM Tris-HCl pH 7.5, 100 mM …
# Chain of HP1α (mouse) (Q61686 whole entry): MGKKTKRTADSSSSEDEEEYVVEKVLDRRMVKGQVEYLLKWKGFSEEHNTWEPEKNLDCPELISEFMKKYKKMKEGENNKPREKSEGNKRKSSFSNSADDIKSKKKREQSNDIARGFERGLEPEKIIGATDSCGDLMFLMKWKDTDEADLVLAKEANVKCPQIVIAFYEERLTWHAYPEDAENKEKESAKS
Substance,Kd [nM],Kd (Fig S2 gives error 0.4) [nM]
TERRA22,940,
TERRA45,,74.4
TERRA96,2.5,

# Source: PMC6954420
